In patent US20140087995A1 (published 2014):
Blank lines part the entries; values can stand above or below the binder they belong to. Numbered stars: 1 amine (or outer) side, 2 acyl side, 3 side chain; on linkers, the order of the positions; unused ones are H or OH. Bridge positions count the residues as written; N and C are the ends. Side chains are listed from the residue outwards. Ends that are not written are not given here. * marks the point of attachment. C20 diacid = O=C(O)CCCCCCCCCCCCCCCCCCC(=O)*; γGlu = O=C(O)[C@H](CCC(=O)[*:2])N[*:1]; AEEA = NCCOCCOCC(=O)O

What was measured:
[1] = target: T1, human calcitonin receptor (human, UniProt P30988 25-474); test: SPA radioligand competition (125I-calcitonin), membranes of BHK cells with human calcitonin receptor
T1 construct: whole, on cells; also called hCTR; hCT
T1 sequence (looked up): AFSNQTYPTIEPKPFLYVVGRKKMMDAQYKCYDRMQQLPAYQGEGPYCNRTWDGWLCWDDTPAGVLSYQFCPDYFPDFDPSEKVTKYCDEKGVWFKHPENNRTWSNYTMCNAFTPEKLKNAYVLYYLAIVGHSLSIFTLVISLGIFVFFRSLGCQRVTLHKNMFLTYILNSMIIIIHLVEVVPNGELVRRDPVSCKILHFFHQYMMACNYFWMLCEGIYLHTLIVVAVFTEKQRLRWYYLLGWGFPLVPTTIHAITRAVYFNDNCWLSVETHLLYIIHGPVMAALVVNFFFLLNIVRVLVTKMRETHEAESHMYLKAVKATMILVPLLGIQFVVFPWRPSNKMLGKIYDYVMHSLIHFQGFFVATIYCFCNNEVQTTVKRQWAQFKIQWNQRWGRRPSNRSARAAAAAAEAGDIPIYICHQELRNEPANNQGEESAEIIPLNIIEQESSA
How it was run: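 BHK hCTR membranes 35 ng/μL + SPA beads 0.05 mg/well; buffer 50 mM Hepes pH 7.4, 1 mM CaCl2, 5 mM MgCl₂, 0.1% OA, 0.02% Tween20. 120 min, 25° C., shaking. Scintillation count; IC50 by one-site binding competition.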

[2] = target: T1, human calcitonin receptor; test: ratio of IC50 at human calcitonin receptor to IC50 at human amylin receptor (SPA competition assays)
How it was run: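 IC₅₀ values were derived by one-site competition analysis of SPA counts. Cell membranes (35 ng/μL) with SPA beads were incubated with test compounds for 120 min at 25° C in Hepes buffer, pH 7.4, containing CaCl2, MgCl₂, OA and Tween20.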

IC50 [1]: 79.9 nM
Ratio hCT/hAmylin binding [2]: 101
B1: N^ε1-[2-[2-[2-[[(4S)-4-carboxy-4-(19-carboxynonadecanoylamino)butanoyl]amino]ethoxy]ethoxy]acetyl]-[Lys14,Arg17,Pro21,Pro27,Pro31]-h-amylin (peptide)
peptide: K([AEEA-γGlu-C20 diacid])CNTATCATQRLAKFLRHSSPNFGAIPSSTPVGSNTY-NH2
modifications: disulfide 2-7; N-terminus assumed
SMILES: CC[C@H](C)[C@H](NC(=O)[C@H](C)NC(=O)CNC(=O)[C@H](Cc1ccccc1)NC(=O)[C@H](CC(N)=O)NC(=O)[C@@H]1CCCN1C(=O)[C@H](CO)NC(=O)[C@H](CO)NC(=O)[C@H](Cc1c[nH]cn1)NC(=O)[C@H](CCCNC(=N)N)NC(=O)[C@H](CC(C)C)NC(=O)[C@H](Cc1ccccc1)NC(=O)[C@H](CCCCN)NC(=O)[C@H](C)NC(=O)[C@H](CC(C)C)NC(=O)[C@H](CCCNC(=N)N)NC(=O)[C@H](CCC(N)=O)NC(=O)[C@@H](NC(=O)[C@H](C)NC(=O)[C@@H]1CSSC[C@H](NC(=O)[C@@H](N)CCCCNC(=O)COCCOCCNC(=O)CC[C@H](NC(=O)CCCCCCCCCCCCCCCCCCC(=O)O)C(=O)O)C(=O)N[C@@H](CC(N)=O)C(=O)N[C@@H]([C@@H](C)O)C(=O)N[C@@H](C)C(=O)N[C@@H]([C@@H](C)O)C(=O)N1)[C@@H](C)O)C(=O)N1CCC[C@H]1C(=O)N[C@@H](CO)C(=O)N[C@@H](CO)C(=O)N[C@H](C(=O)N1CCC[C@H]1C(=O)N[C@H](C(=O)NCC(=O)N[C@@H](CO)C(=O)N[C@@H](CC(N)=O)C(=O)N[C@H](C(=O)N[C@@H](Cc1ccc(O)cc1)C(N)=O)[C@@H](C)O)C(C)C)[C@@H](C)O
notes: also called compound 74

IC50 [1]: 6.86 nM
Ratio hCT/hAmylin binding [2]: 46.3
B2: N^ε1-[(4S)-4-carboxy-4-(19-carboxynonadecanoylamino)butanoyl]-[Ala14,Arg17,Pro21,Pro27,Pro34]-h-amylin (peptide)
peptide: K([γGlu-C20 diacid])CNTATCATQRLAAFLRHSSPNFGAIPSSTNVGPNTY-NH2
modifications: disulfide 2-7; N-terminus assumed
SMILES: CC[C@H](C)[C@H](NC(=O)[C@H](C)NC(=O)CNC(=O)[C@H](Cc1ccccc1)NC(=O)[C@H](CC(N)=O)NC(=O)[C@@H]1CCCN1C(=O)[C@H](CO)NC(=O)[C@H](CO)NC(=O)[C@H](Cc1c[nH]cn1)NC(=O)[C@H](CCCNC(=N)N)NC(=O)[C@H](CC(C)C)NC(=O)[C@H](Cc1ccccc1)NC(=O)[C@H](C)NC(=O)[C@H](C)NC(=O)[C@H](CC(C)C)NC(=O)[C@H](CCCNC(=N)N)NC(=O)[C@H](CCC(N)=O)NC(=O)[C@@H](NC(=O)[C@H](C)NC(=O)[C@@H]1CSSC[C@H](NC(=O)[C@@H](N)CCCCNC(=O)CC[C@H](NC(=O)CCCCCCCCCCCCCCCCCCC(=O)O)C(=O)O)C(=O)N[C@@H](CC(N)=O)C(=O)N[C@@H]([C@@H](C)O)C(=O)N[C@@H](C)C(=O)N[C@@H]([C@@H](C)O)C(=O)N1)[C@@H](C)O)C(=O)N1CCC[C@H]1C(=O)N[C@@H](CO)C(=O)N[C@@H](CO)C(=O)N[C@H](C(=O)N[C@@H](CC(N)=O)C(=O)N[C@H](C(=O)NCC(=O)N1CCC[C@H]1C(=O)N[C@@H](CC(N)=O)C(=O)N[C@H](C(=O)N[C@@H](Cc1ccc(O)cc1)C(N)=O)[C@@H](C)O)C(C)C)[C@@H](C)O
notes: also called compound 94

IC50 [1]: 60.9 nM
Ratio hCT/hAmylin binding [2]: 91.4
B3: N^ε1-[2-[2-[2-[[(4S)-4-carboxy-4-(19-carboxynonadecanoylamino)butanoyl]amino]ethoxy]ethoxy]acetyl]-[Thr14,Arg17,Pro21,Pro27,Pro31]-h-amylin (peptide)
peptide: K([AEEA-γGlu-C20 diacid])CNTATCATQRLATFLRHSSPNFGAIPSSTPVGSNTY-NH2
modifications: disulfide 2-7; N-terminus assumed
SMILES: CC[C@H](C)[C@H](NC(=O)[C@H](C)NC(=O)CNC(=O)[C@H](Cc1ccccc1)NC(=O)[C@H](CC(N)=O)NC(=O)[C@@H]1CCCN1C(=O)[C@H](CO)NC(=O)[C@H](CO)NC(=O)[C@H](Cc1c[nH]cn1)NC(=O)[C@H](CCCNC(=N)N)NC(=O)[C@H](CC(C)C)NC(=O)[C@H](Cc1ccccc1)NC(=O)[C@@H](NC(=O)[C@H](C)NC(=O)[C@H](CC(C)C)NC(=O)[C@H](CCCNC(=N)N)NC(=O)[C@H](CCC(N)=O)NC(=O)[C@@H](NC(=O)[C@H](C)NC(=O)[C@@H]1CSSC[C@H](NC(=O)[C@@H](N)CCCCNC(=O)COCCOCCNC(=O)CC[C@H](NC(=O)CCCCCCCCCCCCCCCCCCC(=O)O)C(=O)O)C(=O)N[C@@H](CC(N)=O)C(=O)N[C@@H]([C@@H](C)O)C(=O)N[C@@H](C)C(=O)N[C@@H]([C@@H](C)O)C(=O)N1)[C@@H](C)O)[C@@H](C)O)C(=O)N1CCC[C@H]1C(=O)N[C@@H](CO)C(=O)N[C@@H](CO)C(=O)N[C@H](C(=O)N1CCC[C@H]1C(=O)N[C@H](C(=O)NCC(=O)N[C@@H](CO)C(=O)N[C@@H](CC(N)=O)C(=O)N[C@H](C(=O)N[C@@H](Cc1ccc(O)cc1)C(N)=O)[C@@H](C)O)C(C)C)[C@@H](C)O
notes: also called compound 75

IC50 [1]: 5.38 nM
Ratio hCT/hAmylin binding [2]: 51.7
B4: N^ε1-[2-[2-[2-[[(4S)-4-carboxy-4-(19-carboxynonadecanoylamino)butanoyl]amino]ethoxy]ethoxy]acetyl]-[Ser14,Arg17,Pro21,Pro27,Pro31]-h-amylin (peptide)
peptide: K([AEEA-γGlu-C20 diacid])CNTATCATQRLASFLRHSSPNFGAIPSSTPVGSNTY-NH2
modifications: disulfide 2-7; N-terminus assumed
SMILES: CC[C@H](C)[C@H](NC(=O)[C@H](C)NC(=O)CNC(=O)[C@H](Cc1ccccc1)NC(=O)[C@H](CC(N)=O)NC(=O)[C@@H]1CCCN1C(=O)[C@H](CO)NC(=O)[C@H](CO)NC(=O)[C@H](Cc1c[nH]cn1)NC(=O)[C@H](CCCNC(=N)N)NC(=O)[C@H](CC(C)C)NC(=O)[C@H](Cc1ccccc1)NC(=O)[C@H](CO)NC(=O)[C@H](C)NC(=O)[C@H](CC(C)C)NC(=O)[C@H](CCCNC(=N)N)NC(=O)[C@H](CCC(N)=O)NC(=O)[C@@H](NC(=O)[C@H](C)NC(=O)[C@@H]1CSSC[C@H](NC(=O)[C@@H](N)CCCCNC(=O)COCCOCCNC(=O)CC[C@H](NC(=O)CCCCCCCCCCCCCCCCCCC(=O)O)C(=O)O)C(=O)N[C@@H](CC(N)=O)C(=O)N[C@@H]([C@@H](C)O)C(=O)N[C@@H](C)C(=O)N[C@@H]([C@@H](C)O)C(=O)N1)[C@@H](C)O)C(=O)N1CCC[C@H]1C(=O)N[C@@H](CO)C(=O)N[C@@H](CO)C(=O)N[C@H](C(=O)N1CCC[C@H]1C(=O)N[C@H](C(=O)NCC(=O)N[C@@H](CO)C(=O)N[C@@H](CC(N)=O)C(=O)N[C@H](C(=O)N[C@@H](Cc1ccc(O)cc1)C(N)=O)[C@@H](C)O)C(C)C)[C@@H](C)O
notes: also called compound 73

IC50 [1]: 137 nM
Ratio hCT/hAmylin binding [2]: 146
B5: N^ε1-[(4S)-4-carboxy-4-(19-carboxynonadecanoylamino)butanoyl]-[Arg14,Arg17,Pro21,Pro27]-h-amylin (peptide)
peptide: K([γGlu-C20 diacid])CNTATCATQRLARFLRHSSPNFGAIPSSTNVGSNTY-NH2
modifications: disulfide 2-7; N-terminus assumed
SMILES: CC[C@H](C)[C@H](NC(=O)[C@H](C)NC(=O)CNC(=O)[C@H](Cc1ccccc1)NC(=O)[C@H](CC(N)=O)NC(=O)[C@@H]1CCCN1C(=O)[C@H](CO)NC(=O)[C@H](CO)NC(=O)[C@H](Cc1c[nH]cn1)NC(=O)[C@H](CCCNC(=N)N)NC(=O)[C@H](CC(C)C)NC(=O)[C@H](Cc1ccccc1)NC(=O)[C@H](CCCNC(=N)N)NC(=O)[C@H](C)NC(=O)[C@H](CC(C)C)NC(=O)[C@H](CCCNC(=N)N)NC(=O)[C@H](CCC(N)=O)NC(=O)[C@@H](NC(=O)[C@H](C)NC(=O)[C@@H]1CSSC[C@H](NC(=O)[C@@H](N)CCCCNC(=O)CC[C@H](NC(=O)CCCCCCCCCCCCCCCCCCC(=O)O)C(=O)O)C(=O)N[C@@H](CC(N)=O)C(=O)N[C@@H]([C@@H](C)O)C(=O)N[C@@H](C)C(=O)N[C@@H]([C@@H](C)O)C(=O)N1)[C@@H](C)O)C(=O)N1CCC[C@H]1C(=O)N[C@@H](CO)C(=O)N[C@@H](CO)C(=O)N[C@H](C(=O)N[C@@H](CC(N)=O)C(=O)N[C@H](C(=O)NCC(=O)N[C@@H](CO)C(=O)N[C@@H](CC(N)=O)C(=O)N[C@H](C(=O)N[C@@H](Cc1ccc(O)cc1)C(N)=O)[C@@H](C)O)C(C)C)[C@@H](C)O
notes: also called compound 83

IC50 [1]: 17.8 nM
Ratio hCT/hAmylin binding [2]: 101
B6: N^ε1-[(4S)-4-carboxy-4-(19-carboxynonadecanoylamino)butanoyl]-[Ala14,Arg17,Pro21,Pro27,His34]-h-amylin (peptide)
peptide: K([γGlu-C20 diacid])CNTATCATQRLAAFLRHSSPNFGAIPSSTNVGHNTY-NH2
modifications: disulfide 2-7; N-terminus assumed
SMILES: CC[C@H](C)[C@H](NC(=O)[C@H](C)NC(=O)CNC(=O)[C@H](Cc1ccccc1)NC(=O)[C@H](CC(N)=O)NC(=O)[C@@H]1CCCN1C(=O)[C@H](CO)NC(=O)[C@H](CO)NC(=O)[C@H](Cc1c[nH]cn1)NC(=O)[C@H](CCCNC(=N)N)NC(=O)[C@H](CC(C)C)NC(=O)[C@H](Cc1ccccc1)NC(=O)[C@H](C)NC(=O)[C@H](C)NC(=O)[C@H](CC(C)C)NC(=O)[C@H](CCCNC(=N)N)NC(=O)[C@H](CCC(N)=O)NC(=O)[C@@H](NC(=O)[C@H](C)NC(=O)[C@@H]1CSSC[C@H](NC(=O)[C@@H](N)CCCCNC(=O)CC[C@H](NC(=O)CCCCCCCCCCCCCCCCCCC(=O)O)C(=O)O)C(=O)N[C@@H](CC(N)=O)C(=O)N[C@@H]([C@@H](C)O)C(=O)N[C@@H](C)C(=O)N[C@@H]([C@@H](C)O)C(=O)N1)[C@@H](C)O)C(=O)N1CCC[C@H]1C(=O)N[C@@H](CO)C(=O)N[C@@H](CO)C(=O)N[C@H](C(=O)N[C@@H](CC(N)=O)C(=O)N[C@H](C(=O)NCC(=O)N[C@@H](Cc1c[nH]cn1)C(=O)N[C@@H](CC(N)=O)C(=O)N[C@H](C(=O)N[C@@H](Cc1ccc(O)cc1)C(N)=O)[C@@H](C)O)C(C)C)[C@@H](C)O
notes: also called compound 93
